In publication PMC8242953, “Immune Tolerance-Adjusted Personalized Immunogenicity Prediction for Pompe Disease” (Frontiers in Immunology, 2021):

Legend:
[1] = Anti-rhGAA IgG antibody (ADA) titers in IOPD subjects on ERT; type: in vivo, human
Experimental: Children with a confirmed diagnosis of IOPD were enrolled in Duke University Medical Centers. IOPD was defined as the presence of hypertrophic cardiomyopathy in the first year of life. […] Clinical data including CRIM status, GAA variants, GAA enzyme activity, age at ERT initiation, and longitudinal anti-rhGAA IgG antibody titers were extracted from medical records ( Supplementary Table S1 ).
ADA titers were determined by Sanofi Genzyme using enzyme-linked immunosorbent assays (ELISA) and confirmed using radioimmunoprecipitation as described previously ([6]). Subjects whose ADA titers repeatedly exceed 51,200 after more than 6-months on rhGAA were classified as high and sustained antibody titers (HSAT) ([5], [11]). Subjects whose ADA titers fell between 12,800 and 51,200 within the first year of ERT were classified as sustained intermediate titers (SIT). Based on ADA titers, subjects were stratified into two groups; 1) High ADA, subjects who developed ADA titers in HSAT or SIT range (≥12,800) and 2) Low ADA, subjects who maintained ADA titers of ≤6,400.

[2] = CRIM-positive IOPD children on ERT; ref [5]; cited from earlier work
Source text: The development of ADA to rhGAA is influenced by the presence or absence of endogenous GAA, defined as cross-reactive immunologic material (CRIM). Individuals who are CRIM-negative have a complete absence of GAA and are at the highest risk of ADA, whereas those who are CRIM-positive may be more immune tolerant to ERT, due to prior exposure to endogenous GAA ([4]). However, one-third of CRIM-positive IOPD children still develop high and sustained or intermediate ADA titers, putting them at risk for clinical decline similar to CRIM-negative individuals ([5]). All CRIM-negative patients develop H ...

Substance: alglucosidase alfa [rhGAA]
- subjects who developed high ADA titers ([1]; 19 of 48 CRIM-positive IOPD subjects on rhGAA ERT without ITI, high ADA = HSAT or SIT, titers ≥12,800): 40%
- subjects who developed low ADA titers ([1]; 29 of 48 CRIM-positive IOPD subjects on rhGAA ERT without ITI, low ADA = titers ≤6,400): 60%
- share of CRIM-positive IOPD children who develop high and sustained or intermediate ADA titers [2]: one-third
